{"source": "patent US20140072613A1", "about": "“Compositions and Methods for Treating Cutaneous Scarring” (priority 2012, published 2014)", "assay_in_all_cases": "cell-based or functional assay", "key": {"BRK(h) (human)": {"biological_target": "BRK(h) (human) (UniProt Q13882)"}, "Bmx(h) (human)": {"biological_target": "T1, Bmx(h) (human) (UniProt P51813)", "T1 sequence (looked up)": "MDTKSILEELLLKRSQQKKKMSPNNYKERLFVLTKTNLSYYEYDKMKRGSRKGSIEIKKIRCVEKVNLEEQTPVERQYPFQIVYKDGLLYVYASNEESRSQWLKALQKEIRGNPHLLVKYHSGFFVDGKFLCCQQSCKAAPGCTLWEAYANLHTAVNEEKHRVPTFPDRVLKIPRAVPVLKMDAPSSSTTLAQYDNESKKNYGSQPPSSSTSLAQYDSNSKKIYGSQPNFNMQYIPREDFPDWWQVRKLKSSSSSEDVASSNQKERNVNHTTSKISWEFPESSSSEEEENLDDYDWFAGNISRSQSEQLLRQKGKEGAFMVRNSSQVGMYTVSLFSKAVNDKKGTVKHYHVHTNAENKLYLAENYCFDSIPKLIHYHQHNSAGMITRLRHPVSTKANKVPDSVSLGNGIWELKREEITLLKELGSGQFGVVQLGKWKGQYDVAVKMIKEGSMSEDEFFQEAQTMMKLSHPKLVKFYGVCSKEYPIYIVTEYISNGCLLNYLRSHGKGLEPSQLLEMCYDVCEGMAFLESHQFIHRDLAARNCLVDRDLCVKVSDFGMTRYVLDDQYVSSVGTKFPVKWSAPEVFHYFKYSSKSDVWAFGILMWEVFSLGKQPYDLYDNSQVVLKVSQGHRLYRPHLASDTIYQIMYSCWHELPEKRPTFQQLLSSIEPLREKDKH"}, "CHK2(I157T)(h) (human)": {"biological_target": "CHK2(I157T)(h) (human) (UniProt O96017)", "sequence (O96017 5-543 I157T limits assumed)": "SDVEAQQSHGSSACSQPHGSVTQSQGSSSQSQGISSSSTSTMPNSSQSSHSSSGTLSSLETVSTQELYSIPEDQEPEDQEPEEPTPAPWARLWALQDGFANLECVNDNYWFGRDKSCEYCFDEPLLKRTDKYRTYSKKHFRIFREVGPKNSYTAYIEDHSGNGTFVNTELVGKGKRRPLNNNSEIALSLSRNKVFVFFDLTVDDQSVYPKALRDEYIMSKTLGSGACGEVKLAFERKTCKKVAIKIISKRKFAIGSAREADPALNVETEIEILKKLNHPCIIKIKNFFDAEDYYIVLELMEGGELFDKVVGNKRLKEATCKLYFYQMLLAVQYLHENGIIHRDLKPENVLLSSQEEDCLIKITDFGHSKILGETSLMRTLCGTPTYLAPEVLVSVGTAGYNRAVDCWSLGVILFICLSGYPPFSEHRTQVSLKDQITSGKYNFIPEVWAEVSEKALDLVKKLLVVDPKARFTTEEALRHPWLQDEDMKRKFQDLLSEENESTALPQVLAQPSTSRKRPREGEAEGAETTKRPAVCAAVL"}, "EphA1(h) (human)": {"biological_target": "T2, EphA1(h) (human) (UniProt P21709)", "T2 sequence (looked up)": "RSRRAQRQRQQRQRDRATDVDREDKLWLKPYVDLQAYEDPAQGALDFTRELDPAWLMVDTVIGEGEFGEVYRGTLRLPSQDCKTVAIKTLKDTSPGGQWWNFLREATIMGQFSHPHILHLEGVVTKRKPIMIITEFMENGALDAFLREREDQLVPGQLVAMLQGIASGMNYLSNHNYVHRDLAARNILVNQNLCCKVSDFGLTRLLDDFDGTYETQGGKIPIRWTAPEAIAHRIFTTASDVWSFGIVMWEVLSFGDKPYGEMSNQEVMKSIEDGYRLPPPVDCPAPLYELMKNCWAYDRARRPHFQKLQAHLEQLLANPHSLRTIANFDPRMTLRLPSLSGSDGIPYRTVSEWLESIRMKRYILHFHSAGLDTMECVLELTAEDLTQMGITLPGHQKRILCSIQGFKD"}, "EphB1(h) (human)": {"biological_target": "EphB1(h) (human) (UniProt P54762)", "sequence (P54762 564-984 limits assumed)": "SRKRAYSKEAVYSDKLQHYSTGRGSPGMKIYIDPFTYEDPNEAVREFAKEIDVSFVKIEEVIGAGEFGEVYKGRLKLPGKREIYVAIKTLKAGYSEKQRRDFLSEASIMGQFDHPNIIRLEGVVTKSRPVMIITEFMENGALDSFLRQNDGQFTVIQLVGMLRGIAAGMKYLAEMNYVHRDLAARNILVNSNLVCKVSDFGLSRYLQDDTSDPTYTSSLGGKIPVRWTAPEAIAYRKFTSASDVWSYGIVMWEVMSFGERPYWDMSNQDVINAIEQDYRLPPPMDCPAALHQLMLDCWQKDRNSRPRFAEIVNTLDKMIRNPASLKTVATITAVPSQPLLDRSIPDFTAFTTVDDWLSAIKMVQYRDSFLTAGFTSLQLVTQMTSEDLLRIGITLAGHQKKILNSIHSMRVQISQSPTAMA"}, "FGFR2(h) (human)": {"biological_target": "FGFR2(h) (human) (UniProt P21802)", "sequence (P21802 456-770 limits assumed)": "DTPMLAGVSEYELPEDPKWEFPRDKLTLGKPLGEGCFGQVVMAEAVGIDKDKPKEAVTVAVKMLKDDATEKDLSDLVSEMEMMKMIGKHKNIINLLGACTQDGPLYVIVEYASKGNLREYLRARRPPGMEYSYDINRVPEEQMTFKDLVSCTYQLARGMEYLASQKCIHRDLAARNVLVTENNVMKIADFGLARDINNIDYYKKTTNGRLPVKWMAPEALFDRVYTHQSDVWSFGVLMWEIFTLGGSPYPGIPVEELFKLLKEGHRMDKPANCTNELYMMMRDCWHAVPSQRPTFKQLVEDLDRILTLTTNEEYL"}, "MAPKAP-K3(h) (human)": {"biological_target": "MAPKAP-K3(h) (human) (UniProt Q16644)", "sequence (Q16644 whole entry)": "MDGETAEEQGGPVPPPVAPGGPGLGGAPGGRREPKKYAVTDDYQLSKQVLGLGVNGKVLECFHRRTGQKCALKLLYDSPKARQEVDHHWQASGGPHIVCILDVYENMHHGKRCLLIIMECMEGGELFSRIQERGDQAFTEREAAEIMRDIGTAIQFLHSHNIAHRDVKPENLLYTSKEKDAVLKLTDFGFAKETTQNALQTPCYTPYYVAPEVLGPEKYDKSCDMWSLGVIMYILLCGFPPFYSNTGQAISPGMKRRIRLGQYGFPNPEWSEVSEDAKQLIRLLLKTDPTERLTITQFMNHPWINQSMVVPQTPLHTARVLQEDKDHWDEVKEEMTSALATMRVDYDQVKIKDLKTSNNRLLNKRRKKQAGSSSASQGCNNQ"}, "MKK6(h) (human)": {"biological_target": "MKK6(h) (human) (UniProt P52564)", "sequence (P52564 whole entry)": "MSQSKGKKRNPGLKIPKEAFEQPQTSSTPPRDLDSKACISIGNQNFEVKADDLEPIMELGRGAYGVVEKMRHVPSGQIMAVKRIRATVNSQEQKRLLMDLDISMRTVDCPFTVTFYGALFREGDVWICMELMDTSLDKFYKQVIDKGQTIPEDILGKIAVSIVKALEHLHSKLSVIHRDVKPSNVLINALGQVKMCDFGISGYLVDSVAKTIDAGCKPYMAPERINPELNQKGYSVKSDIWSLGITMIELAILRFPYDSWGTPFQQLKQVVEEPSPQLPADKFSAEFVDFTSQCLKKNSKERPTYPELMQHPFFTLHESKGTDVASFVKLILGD"}, "MLCK(h) (human)": {"biological_target": "MLCK(h) (human)"}, "MSSK1(h) (human)": {"biological_target": "MSSK1(h) (human) (UniProt Q9UPE1)", "sequence (Q9UPE1 whole entry)": "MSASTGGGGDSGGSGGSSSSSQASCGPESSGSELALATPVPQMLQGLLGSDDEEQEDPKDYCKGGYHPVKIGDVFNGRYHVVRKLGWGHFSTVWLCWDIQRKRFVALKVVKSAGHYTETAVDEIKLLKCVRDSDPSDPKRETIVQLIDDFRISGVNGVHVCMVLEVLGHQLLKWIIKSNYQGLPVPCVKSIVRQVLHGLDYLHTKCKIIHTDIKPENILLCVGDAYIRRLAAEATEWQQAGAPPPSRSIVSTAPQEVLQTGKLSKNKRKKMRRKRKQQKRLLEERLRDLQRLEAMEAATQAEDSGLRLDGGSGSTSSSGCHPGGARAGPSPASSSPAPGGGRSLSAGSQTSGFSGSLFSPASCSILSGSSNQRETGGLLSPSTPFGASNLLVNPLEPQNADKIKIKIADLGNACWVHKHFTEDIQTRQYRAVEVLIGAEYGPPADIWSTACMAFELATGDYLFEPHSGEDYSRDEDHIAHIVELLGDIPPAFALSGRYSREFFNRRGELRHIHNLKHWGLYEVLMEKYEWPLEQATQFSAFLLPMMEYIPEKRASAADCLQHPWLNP"}, "MST2(h) (human)": {"biological_target": "T3, MST2(h) (human) (UniProt Q13188)", "T3 sequence (looked up)": "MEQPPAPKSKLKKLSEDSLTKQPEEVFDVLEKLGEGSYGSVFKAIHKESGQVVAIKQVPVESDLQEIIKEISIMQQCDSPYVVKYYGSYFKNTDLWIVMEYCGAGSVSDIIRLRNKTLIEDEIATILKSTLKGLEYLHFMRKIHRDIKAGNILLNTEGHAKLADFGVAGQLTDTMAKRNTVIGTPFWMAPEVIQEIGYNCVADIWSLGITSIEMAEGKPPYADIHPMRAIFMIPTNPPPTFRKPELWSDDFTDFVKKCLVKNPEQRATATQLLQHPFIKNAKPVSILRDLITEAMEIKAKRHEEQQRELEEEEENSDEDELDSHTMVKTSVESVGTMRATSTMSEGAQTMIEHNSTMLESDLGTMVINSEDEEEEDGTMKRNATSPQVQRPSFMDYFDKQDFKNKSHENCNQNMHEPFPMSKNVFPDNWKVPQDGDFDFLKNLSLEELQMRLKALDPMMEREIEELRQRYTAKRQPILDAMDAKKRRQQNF"}, "MST3(h) (human)": {"biological_target": "MST3(h) (human) (UniProt Q9Y6E0)", "sequence (Q9Y6E0 whole entry)": "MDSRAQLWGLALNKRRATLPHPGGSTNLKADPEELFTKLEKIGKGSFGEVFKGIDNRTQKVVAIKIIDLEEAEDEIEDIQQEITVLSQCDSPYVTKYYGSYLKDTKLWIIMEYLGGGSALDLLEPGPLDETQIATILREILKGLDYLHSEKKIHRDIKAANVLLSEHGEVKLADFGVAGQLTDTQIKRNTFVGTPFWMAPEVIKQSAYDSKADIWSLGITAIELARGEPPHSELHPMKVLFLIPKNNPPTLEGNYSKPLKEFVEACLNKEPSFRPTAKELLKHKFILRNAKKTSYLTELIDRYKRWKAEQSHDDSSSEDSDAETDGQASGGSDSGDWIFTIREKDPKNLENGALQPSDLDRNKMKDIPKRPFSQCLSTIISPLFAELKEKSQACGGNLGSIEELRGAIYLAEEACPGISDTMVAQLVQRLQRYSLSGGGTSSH"}, "Met(Y1248H)(h) (human)": {"biological_target": "Met(Y1248H)(h) (human) (UniProt P08581)"}, "PKA(h) (human)": {"biological_target": "PKA(h) (human) (UniProt P17612)"}, "PKBβ(h) (human)": {"biological_target": "PKBβ(h) (human) (UniProt P31751)", "sequence (P31751 whole entry)": "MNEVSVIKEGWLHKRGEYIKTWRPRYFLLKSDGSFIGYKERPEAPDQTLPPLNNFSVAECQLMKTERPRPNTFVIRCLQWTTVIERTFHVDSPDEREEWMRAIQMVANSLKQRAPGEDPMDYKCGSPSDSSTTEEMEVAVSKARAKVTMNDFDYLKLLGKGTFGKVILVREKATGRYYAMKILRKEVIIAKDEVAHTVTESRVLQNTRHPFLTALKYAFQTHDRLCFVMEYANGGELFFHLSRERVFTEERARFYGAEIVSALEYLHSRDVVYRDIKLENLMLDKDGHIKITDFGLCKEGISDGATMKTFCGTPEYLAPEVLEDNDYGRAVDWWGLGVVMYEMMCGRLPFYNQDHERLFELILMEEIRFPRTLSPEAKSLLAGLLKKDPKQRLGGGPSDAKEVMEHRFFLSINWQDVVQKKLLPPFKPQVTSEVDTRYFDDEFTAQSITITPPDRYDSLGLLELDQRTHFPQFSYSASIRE"}, "PKG1β(h) (human)": {"biological_target": "T4, PKG1β(h) (human) (UniProt Q13976)", "T4 sequence (looked up)": "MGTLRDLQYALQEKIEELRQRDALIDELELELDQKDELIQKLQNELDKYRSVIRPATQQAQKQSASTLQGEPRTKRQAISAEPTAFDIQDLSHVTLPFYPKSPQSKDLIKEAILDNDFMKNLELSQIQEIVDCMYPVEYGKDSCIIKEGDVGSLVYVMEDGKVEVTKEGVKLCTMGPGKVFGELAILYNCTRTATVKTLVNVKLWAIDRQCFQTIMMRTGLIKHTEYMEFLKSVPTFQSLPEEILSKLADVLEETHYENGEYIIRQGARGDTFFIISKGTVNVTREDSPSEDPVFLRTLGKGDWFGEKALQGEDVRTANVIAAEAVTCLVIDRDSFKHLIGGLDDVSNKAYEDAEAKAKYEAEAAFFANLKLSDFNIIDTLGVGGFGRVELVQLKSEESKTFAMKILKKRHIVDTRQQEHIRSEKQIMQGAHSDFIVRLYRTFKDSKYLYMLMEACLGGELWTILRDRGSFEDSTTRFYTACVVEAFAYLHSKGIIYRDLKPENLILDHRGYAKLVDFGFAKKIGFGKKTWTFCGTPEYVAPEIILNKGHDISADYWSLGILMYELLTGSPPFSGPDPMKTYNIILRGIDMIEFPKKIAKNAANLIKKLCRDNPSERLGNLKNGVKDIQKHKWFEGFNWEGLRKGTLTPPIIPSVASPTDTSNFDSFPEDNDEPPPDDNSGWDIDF"}, "SRPK2(h) (human)": {"biological_target": "SRPK2(h) (human) (UniProt P78362)", "sequence (P78362 whole entry)": "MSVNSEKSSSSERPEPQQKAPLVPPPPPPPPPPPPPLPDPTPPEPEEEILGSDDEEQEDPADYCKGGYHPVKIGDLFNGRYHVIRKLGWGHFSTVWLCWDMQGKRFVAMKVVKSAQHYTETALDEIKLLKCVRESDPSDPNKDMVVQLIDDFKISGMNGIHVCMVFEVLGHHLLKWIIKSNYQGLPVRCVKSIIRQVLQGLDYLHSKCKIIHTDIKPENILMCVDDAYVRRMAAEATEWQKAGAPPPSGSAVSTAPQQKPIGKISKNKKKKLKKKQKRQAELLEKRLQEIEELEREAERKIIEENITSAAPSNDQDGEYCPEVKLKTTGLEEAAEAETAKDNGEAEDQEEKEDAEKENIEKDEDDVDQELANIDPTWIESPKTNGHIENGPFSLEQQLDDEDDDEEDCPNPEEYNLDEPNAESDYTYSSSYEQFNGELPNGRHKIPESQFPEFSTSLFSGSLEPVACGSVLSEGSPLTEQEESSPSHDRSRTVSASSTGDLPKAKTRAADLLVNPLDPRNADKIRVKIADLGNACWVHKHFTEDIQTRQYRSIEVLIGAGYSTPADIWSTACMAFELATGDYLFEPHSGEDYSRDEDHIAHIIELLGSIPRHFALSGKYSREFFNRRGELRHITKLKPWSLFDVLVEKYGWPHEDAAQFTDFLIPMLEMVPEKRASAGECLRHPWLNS"}, "Tie2(h) (human)": {"biological_target": "Tie2(h) (human) (UniProt Q02763)", "sequence (Q02763 771-1124 limits assumed)": "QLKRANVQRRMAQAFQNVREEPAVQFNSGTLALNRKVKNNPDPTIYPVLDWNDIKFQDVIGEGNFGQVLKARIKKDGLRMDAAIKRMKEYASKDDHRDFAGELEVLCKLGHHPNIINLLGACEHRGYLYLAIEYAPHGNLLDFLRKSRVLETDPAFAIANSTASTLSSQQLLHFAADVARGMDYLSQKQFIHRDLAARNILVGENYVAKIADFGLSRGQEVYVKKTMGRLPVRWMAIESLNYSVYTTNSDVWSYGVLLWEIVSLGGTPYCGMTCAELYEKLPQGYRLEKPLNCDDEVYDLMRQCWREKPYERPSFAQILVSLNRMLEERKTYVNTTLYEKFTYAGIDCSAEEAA"}}}
{"substance": "MMI-0500 (peptide)", "values": [{"measurement": "% activity, 100 µM", "setting": "BRK(h) (human)", "value": 41, "unit": "%"}, {"measurement": "% activity, 100 µM", "setting": "Bmx(h) (human)", "value": 45, "unit": "%"}, {"measurement": "% activity, 100 µM", "setting": "CHK2(I157T)(h) (human)", "value": 3, "unit": "%"}, {"measurement": "% activity, 100 µM", "setting": "EphA1(h) (human)", "value": 40, "unit": "%"}, {"measurement": "% activity, 100 µM", "setting": "EphB1(h) (human)", "value": 37, "unit": "%"}, {"measurement": "% activity, 100 µM", "setting": "FGFR2(h) (human)", "value": 12, "unit": "%"}, {"measurement": "% activity, 100 µM", "setting": "MAPKAP-K3(h) (human)", "value": 9, "unit": "%"}, {"measurement": "inhibition of kinase activity at 100 µM", "setting": "MAPKAP-K3(h) (human)", "value": "> 65", "unit": "%"}, {"measurement": "% activity, 100 µM", "setting": "MKK6(h) (human)", "value": 18, "unit": "%"}, {"measurement": "% activity, 100 µM", "setting": "MLCK(h) (human)", "value": 0, "unit": "%"}, {"measurement": "% activity, 100 µM", "setting": "MSSK1(h) (human)", "value": 22, "unit": "%"}, {"measurement": "% activity, 100 µM", "setting": "MST2(h) (human)", "value": 2, "unit": "%"}, {"measurement": "% activity, 100 µM", "setting": "MST3(h) (human)", "value": 4, "unit": "%"}, {"measurement": "% activity, 100 µM", "setting": "Met(Y1248H)(h) (human)", "value": 126, "unit": "%"}, {"measurement": "% activity, 100 µM", "setting": "PKA(h) (human)", "value": 118, "unit": "%"}, {"measurement": "% activity, 100 µM", "setting": "PKBβ(h) (human)", "value": 21, "unit": "%"}, {"measurement": "% activity, 100 µM", "setting": "PKG1β(h) (human)", "value": 24, "unit": "%"}, {"measurement": "% activity, 100 µM", "setting": "SRPK2(h) (human)", "value": 80, "unit": "%"}, {"measurement": "% activity, 100 µM", "setting": "Tie2(h) (human)", "value": 22, "unit": "%"}]}
